The text below walks through data of US11015206B2, “Compositions and methods comprising sequences having hydroxyphenylpyruvate dioxygenase (HPPD) activity” (PIONEER HI-BRED INTERNATIONAL, INC., priority 2014, dated 2021).

Numbering of substitutions follows the chain as printed.

To fix the notation:
B1: P056028-D-05 (protein)
chain: MGPTPTATAAGAAVAAASAAEQAAFRLVGHRNFVRFNPRSDRFQTLAFHHVELWCADAASAAGRFSFALGVPLAARSDLSTGNSAHASLLLRSGSLSLLFTAPYAHGADAATAALPSFSAAAARRFAADHGLAVRAVALRVADAEDAFRASVAAGARPAFGPVDLGRGFRLAEVELYGDVVLRYVSYPDGAAGEPFLPGFEGVASSGAADYGLSRFDHIVGNVPELAPAAAYMAGFTGFHEFAEFTTEDVGTTESGLNSMALANNSENVLLPLNEPVHGTKRRSQIQTFLDHHGGPGVQHIALASDDVLRTLREMRARSAMGGFEFLPPPLSDYYDGVRKCAGDVLTEAQINECQRLGVMVDRDDEGVLLQIFTKPVGDRPTFFLEIIQRIGCMEKDEKGQEYQKGGCGGFGKGNFSQLFKSIEDYEKSLEAKQAAAAATAQGS
modifications: Zea mays variant form created by artificial means.
B2: P056028-E-11 (protein)
chain: B1 chain with A191G, K340R, R356E, S417G
modifications: Zea mays variant form created by artificial means.
B3: P056028-D-07 (protein)
chain: B1 chain with S206Q, R356E, L385I, S417G
modifications: Zea mays variant form created by artificial means.
B4: P056028-E-10 (protein)
chain: B1 chain with L182M, S206Q, K340R, R356E, S417G
modifications: Zea mays variant form created by artificial means.
B5: P056028-D-09 (protein)
chain: B1 chain with A191G, S206P, K340R, R356K, S417G
modifications: Zea mays variant form created by artificial means.
B6: P056028-D-06 (protein)
chain: B1 chain with L182M, S206Q, Y211L, S214N, K340R, R356E, I387L
modifications: Zea mays variant form created by artificial means.

The first data set relates to 4-hydroxyphenylpyruvate dioxygenase (HPPD). Nature of the data set: ON rate ratio: HPPD reaction rate with vs without inhibitor in the 70 to 90 second interval. The class given is biochemical, Z. mays. The conditions noted are these: Table 7; tembotrione; combinatorial variants. In outline:
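Indicator of inhibitor on-rate: reaction velocity in the 70 to 90 second window with 4 μM inhibitor divided by that without. Reactions contained 100 μM HPP and 60 or 120 nM HPPD; slower binding gives a larger ratio.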
Take B1: the ON rate ratio worked out at 0.730.

On to B2, for which the ON rate ratio is recorded as 0.721.

On to B3, for which the ON rate ratio came to 0.775.

For B4, the ON rate ratio amounted to 0.702.

As to B5, the ON rate ratio turned out to be 0.652.

As to B6, the ON rate ratio is listed as 0.731.

Another data set has the same test system. Nature of the data set: OFF rate ratio: release of inhibitor from pre-formed enzyme-inhibitor complex. The class given is biochemical, Z. mays. The conditions noted are these: Table 7; tembotrione; combinatorial variants. The method, boiled down:
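Inhibitor release from pre-formed complex (enzyme 7.2 μM, inhibitor 8 μM, 1 h RT) tracked as accelerating HPPD activity at 320 nm over 12 min, coupled via 50 nM HGD with 100 μM HPP at pH 7. OFF rate ratio: steady-state velocity relative to uninhibited initial velocity.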
B1: the OFF rate ratio is on record as 0.508.

For the molecule B2, the OFF rate ratio came out at 0.304.

Take B3: the OFF rate ratio is recorded as 0.370.

Regarding B4, the OFF rate ratio stood at 0.339.

On to B5, for which the OFF rate ratio is 0.371.

As for B6, the OFF rate ratio stood at 0.424.

A further data set has the same test system. Nature of the data set: Insensitivity parameter (ON × OFF) and trait fitness (ON × OFF × kcat/KM or × kcat). The conditions noted are these: Megatable 3; shuffled variants. Also on record: key to ON × OFF / Insensitivity, mesotrione, ON × OFF / Insensitivity, tembotrione, ON × OFF / Insensitivity, topramezone, ON × OFF / Insensitivity, sulcotrione, ON × OFF / Insensitivity, isoxaflutole (DKN), ON × OFF: insensitivity = ON rate ratio × OFF rate ratio (surrogate for KD). It counts as biochemical, Z. mays. The method, boiled down:
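Trait fitness combines catalysis and insensitivity as kcat/KM × ON rate ratio × OFF rate ratio. The insensitivity parameter is the product of ON and OFF rate ratios, used in place of KD because the ON rate ratio is inverse.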
Take B1: the “ON × OFF” value was found to be 0.371 and the “ON × OFF × kcat” value is 4.66.

With B2, the “ON × OFF” value is listed as 0.219 and the “ON × OFF × kcat” value is given as 3.70.

B3: the “ON × OFF” value is 0.286 and the “ON × OFF × kcat” value is listed as 2.60.

As for B4, the “ON × OFF” value is reported as 0.238 and the “ON × OFF × kcat” value is reported as 2.73.

Turning to B5, the “ON × OFF” value was 0.242 and the “ON × OFF × kcat” value amounted to 3.16.

Regarding B6, the “ON × OFF” value was 0.310 and the “ON × OFF × kcat” value worked out at 3.07.

The data set is the same for the next values; noted with them: Table 7; tembotrione; combinatorial variants.
In the case of B1, the “ON × OFF” value is given as 0.371 and the “ON × OFF × kcat” value turned out to be 4.66.

Take B2: the “ON × OFF” value worked out at 0.219 and the “ON × OFF × kcat” value is on record as 3.70.

For B3, the “ON × OFF” value stood at 0.286 and the “ON × OFF × kcat” value worked out at 2.60.

Take B4: the “ON × OFF” value came to 0.238 and the “ON × OFF × kcat” value stood at 2.73.

Turning to B5, the “ON × OFF” value is 0.242 and the “ON × OFF × kcat” value was found to be 3.16.

Turning to B6, the “ON × OFF” value was 0.310 and the “ON × OFF × kcat” value is reported as 3.07.

The test system is the same in a further data set. Nature of the data set: Estimate of kcat from initial rate at saturating hydroxyphenylpyruvate without inhibitor (ON rate ratio assay). The conditions noted are these: Megatable 3; shuffled variants. It counts as biochemical, Z. mays. The method, boiled down:
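kcat was estimated from the initial reaction rate with known enzyme level (60 or 120 nM HPPD). Hydroxyphenylpyruvate was at a saturating 100 μM, with no inhibitor present.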
Regarding B1, the kcat (commonly the maximal rate divided by the concentration of active sites) is 12.6 min⁻¹.

Regarding B2, the kcat was 16.9 min⁻¹.

With B3, the kcat was 9.1 min⁻¹.

With B4, the kcat is 11.5 min⁻¹.

For the molecule B5, the kcat is 13 min⁻¹.

B6: the kcat is 9.9 min⁻¹.

Still in this data set, the particulars now being: Table 7; combinatorial variants.
For the molecule B1, the catalytic constant (kcat) was 12.6 min⁻¹.

Regarding B2, the kcat is 16.9 min⁻¹.

As for B3, the kcat is 9.1 min⁻¹.

As to B4, the kcat was 11.5 min⁻¹.

As to B5, the kcat is 13 min⁻¹.

For B6, the kcat was 9.9 min⁻¹.
